Results taken from US20200207868A1 (UNIVERSITY OF SASKATCHEWAN, published 2020).

How the values were obtained:
[1] = biological target: T1, recombinant human HER3-Fc chimera protein (R&D Systems) (human, UniProt P21860 20-643); experiment: BLI, IRDye800CW-labeled antibody
T1 construct: extracellular domain; Bought from R&D Systems; also called recombinant human HER3 extracellular domain; recombinant HER3; not shown: Fc part of the purchased chimera

[2] = biological target: HER3 (as used in the biolayer interferometry of Example 2) (UniProt P21860 20-643, limits assumed); experiment: BLI
HER3 (as used in the biolayer interferometry of Example 2), sequence (P21860 20-643 limits assumed): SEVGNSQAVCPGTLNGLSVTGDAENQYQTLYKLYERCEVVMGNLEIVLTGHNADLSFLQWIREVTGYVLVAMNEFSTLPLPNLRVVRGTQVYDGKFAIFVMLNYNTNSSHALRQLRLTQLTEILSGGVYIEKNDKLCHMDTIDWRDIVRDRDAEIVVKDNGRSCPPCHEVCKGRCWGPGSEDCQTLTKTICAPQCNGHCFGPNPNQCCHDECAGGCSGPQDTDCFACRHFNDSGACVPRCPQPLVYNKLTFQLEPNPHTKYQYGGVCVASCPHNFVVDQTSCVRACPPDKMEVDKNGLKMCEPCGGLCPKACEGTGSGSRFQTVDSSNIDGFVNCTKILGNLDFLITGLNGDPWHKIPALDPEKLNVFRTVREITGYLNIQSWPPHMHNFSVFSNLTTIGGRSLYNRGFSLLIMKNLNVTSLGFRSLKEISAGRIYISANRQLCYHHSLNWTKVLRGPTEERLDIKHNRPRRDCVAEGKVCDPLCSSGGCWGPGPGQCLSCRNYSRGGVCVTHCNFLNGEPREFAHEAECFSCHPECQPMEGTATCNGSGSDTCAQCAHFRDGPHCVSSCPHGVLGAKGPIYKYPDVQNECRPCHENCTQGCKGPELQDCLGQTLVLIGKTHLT

[3] = biological target: T1, recombinant human HER3-Fc chimera …; experiment: BLI (Octet Red), antibody on AR2G sensor, HER3-Fc 10-263 nM, 1:1 fit
Protocol: Binding kinetics were measured using an Octet Red instrument (ForteBio, Menlo Park, Calif.), following the manufacturer's protocol. Binding assays were performed in 96-well microtiter plates at 30° C. with sample plate orbital motion agitation at 1000 rpm. All washes, dilutions, and measurements were performed in phosphate buffered saline (PBS), pH 7.4. The IgG and antibody fragments were immobilized on amine-reactive second generation (AR2G) sensors using the manufacturer's protocol at pH 5 followed by quenching with 1 M ethanolamine, pH 8.5. […] Binding was monitored by placing sensors into wells for 5 min, followed by dissociation in PBS for 10 min. KD, kON, and kOFF were determined with ForteBio Data Analysis software v7.1.0.33 through locally fitting the processed data using a 1:1 binding model.

T1 sequence (P21860 20-643, change not shown): as the sequence (P21860 20-643 limits assumed) above

B1: anti-HER3 scFv-CH3 labeled with IRDye800CW (other)
chain: SDIQMTQSPSSLSASVGDRVTITCRASQGISNYLAWYQQKPGKAPKLLIYAASSLQSGVPSRFSGSRSGTDFTLTISSLQPEDFATYYCQQYGWLPLTFGQGTKVEIKGGGGSGGGGSGGGGSEISEVQLVESGGGLVQPGGSLRLSCAASGFTFSSYGMHWVRQAPGKGLEWVAVISYDGSNKYYADSVKGRFTISRDNSKNTLYLQMNSLRAEDTAVYYCARTDPYSLGGYYFDYWGQGTLVTVSSEPKSCDKTHTCPPCPGQPREPQVYTLPPSREEMTKNQVSLTCLVKGFYPSDIAVEWESNGQPENNYKTTPPVLDSDGSFFLYSKLTVDKSRWQQGNVFSCSVMHEALHNHYTQKSLSLSPGK
notes: also called IRDye800CW-labeled scFv-CH3
Kd [1]: 2.1 nM

B2: anti-HER3 scFv (scFv)
scFv: SDIQMTQSPSSLSASVGDRVTITCRASQGISNYLAWYQQKPGKAPKLLIYAASSLQSGVPSRFSGSRSGTDFTLTISSLQPEDFATYYCQQYGWLPLTFGQGTKVEIKGGGGSGGGGSGGGGSEISEVQLVESGGGLVQPGGSLRLSCAASGFTFSSYGMHWVRQAPGKGLEWVAVISYDGSNKYYADSVKGRFTISRDNSKNTLYLQMNSLRAEDTAVYYCARTDPYSLGGYYFDYWGQGTLVTVSS
notes: VL-(GGGGS)3-VH of HER3-3, expressed in E. coli
Kd [2]: 21.6 nM | koff [2]: 0.00127 s⁻¹ | kon [2]: 60400 M⁻¹ s⁻¹ | Kd [3]: 20 nM | koff [3]: 0.00054 s⁻¹ | kon [3]: 33000 M⁻¹ s⁻¹

B3: anti-HER3 scFv labeled with IRDye800CW (scFv)
scFv: B2 scFv
modifications: IRDye800CW-NHS label, 1-2 dye molecules per fragment, sites not stated
notes: m4 labelled with IRDye800CW; also called IRDye800CW-labeled scFv
Kd [1]: 29 nM

B4: anti-HER3 diabody (other)
chain: SDIQMTQSPSSLSASVGDRVTITCRASQGISNYLAWYQQKPGKAPKLLIYAASSLQSGVPSRFSGSRSGTDFTLTISSLQPEDFATYYCQQYGWLPLTFGQGTKVEIKGGGGSEISEVQLVESGGGLVQPGGSLRLSCAASGFTFSSYGMHWVRQAPGKGLEWVAVISYDGSNKYYADSVKGRFTISRDNSKNTLYLQMNSLRAEDTAVYYCARTDPYSLGGYYFDYWGQGTLVTVSS
notes: VL-GGGGS-VH of HER3-3; bivalent (51.6 kDa), expressed in E. coli
Kd [3]: 3 nM | koff [3]: 0.00044 s⁻¹ | kon [3]: 150000 M⁻¹ s⁻¹

B5: anti-HER3 diabody labeled with IRDye800CW (other)
chain: B4 chain
modifications: IRDye800CW-NHS label, 1-2 dye molecules per fragment, sites not stated
notes: m5 labelled with IRDye800CW; also called IRDye800CW-labeled diabody
Kd [1]: 2.4 nM
